According to patent US5885811A, “Leader sequence inducing a post-translational modification of polypeptides in bacteria gene therefor and subtilin variant of enhanced stability and activity” (University of Maryland, priority 1995, dated 1999):

What was measured:
[1] = type: physicochemical
Protocol: Measurement of chemical stability of DHA5. The dehydro residues of nisin and subtilin have vinyl protons that give well-separated resonances in the proton NMR spectrum, Liu and Hansen, Appl. Environ. Microbiol., 56, p. 251 (1990). The areas of the vinyl proton peaks in the NMR spectrum were measured, and chemical modification of DHA5 over time was taken as the decrease in peak area of the DHA5 vinyl protons in subtilin and in E4I-subtilin as compared to zero time. Proton NMR spectra were obtained using a Bruker AMX-500 NMR spectrometer. The spectra were obtained at a constant temperature of 295K, using selective solvent suppression.
Chemical and biological stability of natural subtilin. The natural producer of subtilin is B. subtilis ATCC 6633. […] These dissolved samples were incubated at room temperature, and from time to time, the NMR spectrum of the one sample and the biological activity of the other sample against Bacillus cereus spores were determined. […]
E4I-subtilin has enhanced chemical and biological stability. The central design strategy in the construction of a stable mutant of subtilin was based on the idea that the chemical and biological stabilities of subtilin are determined by the chemical reactivity of DHA5; and that DHA5 in natural subtilin is unstable because the Glu4 carboxyl participates in its chemical modification (FIG. 7). […]

Bacillus cereus T spores = assay: Spore outgrowth liquid assay (amount required to inhibit spore outgrowth during 3 hour assay); type: cell-based
Protocol: (§1) Measurement of biological stability of subtilin. Biological activity against Bacillus cereus spores was measured by a liquid assay in which various concentrations of subtilin were added to a suspension of Bacillus cereus T spores in 15 ml polypropylene tubes, and inhibitory effects were evaluated by phase-contrast microscopy as described previously (Morris et al, J. Biol. Chem., 259, 13590-13594 (1984) and Appl. Environ. Microbiol., 42, 958-962 (1981)). The amount of subtilin required to inhibit spore outgrowth during the 3 hour assay period was used as a measure of antimicrobial activity. Relative amounts of subtilin were estimated from the area of the subtilin peak (measured at 254 nm) that eluted from the C-18 analytical HPLC column during purification. The amounts were converted to molar quantities of subtilin by comparing the peak area of subtilin with that of a known molar quantity of a nisin standard (21). For this purpose, the extinction coefficients of nisin and subtilin at 254 nm were assumed to be the same, in that absorbance at this wavelength is mainly due to the same three dehydro residues present in both peptides. The biological activity against Bacillus cereus spores of the E4I-subtilinmutant was determined in the same way as for natural subtilin.
E4I-subtilin has enhanced specific activity. […]

Bacillus cereus spores = assay: Biological stability: activity against Bacillus cereus spores over time of incubation; type: cell-based; details: 50 mM NaPi pH 6.8, room temperature, compared with DHA5 disappearance
Protocol: as §1
Chemical and biological stability of natural subtilin. The natural producer of subtilin is B. subtilis ATCC 6633. […]

[2] = reported; cited from earlier work

Compound | increase in chemical and biological stability relative to natural subtilin [1] [fold] | t1/2 of chemical modification (disappearance) of DHA5, first-order ([1]; aqueous solution (D2O) pH 6.8, room temperature, NMR at 295K) [h] | concentration showing inhibition of spore outgrowth (Bacillus cereus T spores) | concentration showing inhibition of spore outgrowth (molar) (Bacillus cereus T spores) [nM] | loss of biological activity against Bacillus cereus spores during incubation (Bacillus cereus spores) | light sensitivity [2]
C=C(NC(=O)[C@@H](NC(=O)[C@H](CCCCN)NC(=O)[C@@H]1CSC(C)[C@H]2NC(=O)[C@H](CC(C)C)NC(=O)[C@H](NC(=O)[C@H](CCC(N)=O)NC(=O)[C@H](CC(C)C)NC(=O)[C@H](Cc3ccccc3)NC(=O)[C@@H]3CSC(C)[C@@H](NC(=O)[C@@H](NC(=O)[C@@H]4CSC(C)[C@@H](NC(=O)[C@@H]5CSC[C@@H](NC(=O)[C@H](CCCCN)NC(=O)[C@@H](N)Cc6c[nH]c7ccccc67)C(=O)N[C@@H]([C@@H](C)CC)C(=O)NC(=C)C(=O)N[C@@H](CC(C)C)C(=O)N5)C(=O)N5CCC[C@H]5C(=O)NCC(=O)N4)C(C)C)C(=O)NCC(=O)N[C@@H](C)C(=O)N[C@@H](CC(C)C)C(=O)N[C@@H](CCC(N)=O)C(=O)NC(=CC)C(=O)N3)C(C)SC[C@H](NC2=O)C(=O)N[C@@H](CC(N)=O)C(=O)N1)[C@@H](C)CC)C(=O)N[C@@H](CCCCN)C(=O)O (stereo partly drawn) [E4I-subtilin] | 57 |  |  |  |  | 
C=C1NC(=O)CC[C@@H](C(=O)O)NC(=O)[C@H](NC(=O)[C@H](CCCCN)NC(=O)[C@@H](N)Cc2c[nH]c3ccccc23)CSC[C@@H](C(=O)N[C@@H]2C(=O)N3CCC[C@H]3C(=O)NCC(=O)N[C@H](C(=O)N[C@H](C(=O)N[C@@H]3C(=O)NCC(=O)N[C@@H](C)C(=O)N[C@@H](CC(C)C)C(=O)N[C@@H](CCC(N)=O)C(=O)N/C(=C/C)C(=O)N[C@H](C(=O)N[C@@H](Cc4ccccc4)C(=O)N[C@@H](CC(C)C)C(=O)N[C@@H](CCC(N)=O)C(=O)N[C@@H]4C(=O)N[C@@H](CC(C)C)C(=O)N[C@H]5C(=O)N[C@@H](CSC4C)C(=O)NC(=O)[C@H](CC(N)=O)N[C@H](C(=O)N[C@@H](CCCCN)C(=O)N[C@H](C(=O)NC(=C)C(=O)N[C@@H](CCCCN)C(=O)O)[C@@H](C)CC)CSC5C)CSC3C)C(C)C)CSC2C)N[C@@H](CC(C)C)C(=O)NC1=O (stereo partly drawn) [subtilin] |  | 19 | about 1 μg per ml | ~280 | dropped at approximately this same rate | light-sensitive
